Experimental data as given in patent publication US20260274983A1 (MODERNATX, published 2026).
Numbering of substitutions follows the chain as printed.

Experiments:
[1] = molecular target: T1, CD38 (UniProt P28907 1-300, limits assumed); experiment: FACS on H929 cells, VHH-His
T1 construct: whole, on cells; also called CD38 on RPMI8226 cells; CD38 on H929 cells
T1 sequence (looked up): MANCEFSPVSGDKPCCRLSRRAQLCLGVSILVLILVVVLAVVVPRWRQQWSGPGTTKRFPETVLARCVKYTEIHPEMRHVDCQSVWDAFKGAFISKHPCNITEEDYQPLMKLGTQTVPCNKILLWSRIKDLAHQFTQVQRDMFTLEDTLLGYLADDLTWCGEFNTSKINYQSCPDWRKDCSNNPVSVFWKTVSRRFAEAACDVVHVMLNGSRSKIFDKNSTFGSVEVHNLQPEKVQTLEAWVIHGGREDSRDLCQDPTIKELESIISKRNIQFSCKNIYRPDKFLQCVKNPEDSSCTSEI

[2] = molecular target: T1, CD38; experiment: FACS on RPMI8226 cells, VHH-His
[3] = molecular target: T2, human BCMA (human, UniProt Q02223 1-184); experiment: FACS binding to RPMI8226 cells, Fc format [upper panel RPMI8226]
T2 construct: whole, on cells; Human is stated only for CHO-HuBCMA; also called HuBCMA; B-cell maturation antigen
T2 sequence (looked up): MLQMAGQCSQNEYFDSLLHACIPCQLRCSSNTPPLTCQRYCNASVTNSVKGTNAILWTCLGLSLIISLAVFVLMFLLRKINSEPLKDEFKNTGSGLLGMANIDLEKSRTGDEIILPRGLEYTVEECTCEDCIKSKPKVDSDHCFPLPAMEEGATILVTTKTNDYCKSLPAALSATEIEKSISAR

[4] = molecular target: T3, human GPRC5D (human, UniProt Q9NZD1 1-345); experiment: FACS on CHO-HuGPRC5D cells, VHH-His
T3 construct: whole, on cells; Human is stated only for CHO-HuGPRC5D; also called HuGPRC5D; GPRC5D on CHO-HuGPRC5D cells
T3 sequence (Q9NZD1 whole entry): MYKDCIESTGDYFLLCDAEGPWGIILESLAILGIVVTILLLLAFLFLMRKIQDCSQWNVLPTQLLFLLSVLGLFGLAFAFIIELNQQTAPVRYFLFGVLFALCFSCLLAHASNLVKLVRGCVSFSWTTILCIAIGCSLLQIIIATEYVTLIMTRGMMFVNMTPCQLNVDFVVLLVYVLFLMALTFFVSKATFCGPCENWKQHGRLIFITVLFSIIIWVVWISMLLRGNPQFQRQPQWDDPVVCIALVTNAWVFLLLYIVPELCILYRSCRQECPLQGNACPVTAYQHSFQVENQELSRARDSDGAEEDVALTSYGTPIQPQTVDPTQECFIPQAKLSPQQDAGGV

[5] = molecular target: T3, human GPRC5D; experiment: FACS on H929 cells, VHH-His
[6] = molecular target: T3, human GPRC5D; experiment: FACS on CHO-HuGPRC5D cells
[7] = molecular target: T3, human GPRC5D; experiment: FACS on H929 cells
[8] = molecular target: T2, human BCMA; experiment: FACS on CHO-HuBCMA cells, Fc formatted
[9] = molecular target: T2, human BCMA; experiment: FACS on RPMI8226 cells, Fc formatted
[10] = molecular target: T1, CD38; experiment: FACS binding to RPMI8226 cells, VHH-His format

B1: CD38-VHH8 (VHH)
VHH: QVQLVESGGGLVQAGGSLRLSCAASGSSVSMNSMAWYRQAPGKQRELVALITPGDRINYADFVKGRFTISRDNAKNTVNLQMNNLKPEDTAVYYCNIGATRPPFGAWGQGTQVTVSS
EC50 [1]: 2.06 nM | EC50 [2]: 0.45 nM

B2: BCMA-VHH21 (Fc fusion)
chain: QVKLEESGGGLVQAGGSLSLSCKASVRYFSTYAMGWFRQAPGKEREFVAAISWSGGSTYYADSVKGRFTISRDNAKNTVYLEMNSLKPEDTAVYYCAAPYGSSQNLEYDYWGQGTQVTVSS
notes: not shown: Fc of the Fc formatted construct
binding result [3]: no binding (tested: about 500 nM (log 2.7))

B3: CD38-VHH6 (VHH)
VHH: QVQLVESGGGLVQAGGSLRLSCAASGTFSSINLMGYYRQAPGKQREFVARDYTEGTTDYADSVKGRFTISRDNTKKTVFLQMNNLKPEDTAIYYCWLMVRAGDVYWGQGTQVTVSS
EC50 [1]: 101 nM | EC50 [2]: 28.4 nM

B4: GPRC5D-VHH2 (VHH)
VHH: QVQLVESGGGLVQAGGSLRLSCAASGRTASAYVMGWFRQAPGKERDFVAGISGGAYYADSVKGRFTIARDNAKNTVYLQMNSLKPEDTAVYYCAAERGMRRLTESYQYDYWGQGTQVTVSS
EC50 [4]: 0.68 nM | EC50 [5]: 0.23 nM

B5: GPRC5D-VHH2-H5 (VHH)
VHH: B4 VHH with A14P, D46E, A68S, A72S, K84R, P85A, Q116L
notes: Humanized variant of GPRC5D-VHH2
EC50 [6]: 0.3 nM | EC50 [7]: 0.06 nM

B6: BCMA-VHH2 (Fc fusion)
chain: HVQLVESGGGLVQTGGSLRLSCAASGRTLNNYVVAWFRQAPGKEREFVATMWWSGGSPWYSDNVKGRFTISRDNAKNTLYLQMNSLRPEDTAVYYCAATWVGTSEYRHWGQGTQVTVSS
notes: as for B2
EC50 [8]: 0.8 nM

B7: BCMA-VHH4 (Fc fusion)
chain: B6 chain with H1Q, Q3K, V5E, R107Q
notes: as for B2
EC50 [8]: 0.57 nM

B8: BCMA-VHH15 (Fc fusion)
chain: QVQLVESGGGLVQPGGSLRLSCAASGFTFSTYSMYWVRQAPGKGLEWVSAIDARGVNTYYADSVRGRFTVSRDNAKNTLYLQMNNLKLEDTALYYCGGWEFATWGRGTQVTVSS
notes: as for B2
EC50 [8]: 1.76 nM

B9: BCMA-VHH24 (Fc fusion)
chain: QVKLEESGGGLVQAGGSLRLSCQVSGRTFASFAMAWFRQAPGKEREFVAGISWSGGFTSYADSVKGRFTISRDNAKHTVYLQMNSLKTEDTAMYYCGEWGGFSLLGQGTQVTVSS
notes: as for B2
binding result [3]: no binding (tested: about 500 nM (log 2.7))

B10: BCMA-VHH8 (Fc fusion)
chain: QVQLVQSGGGLVLPGGSLRLSCAASGFTLSSYWMHWLRQAPGKGLEWVSAIKPESGITYYAESMKGRFTISRDNAKNTLYLQMNSLKSEDSALYYCVREDYDSAYVGDYWGKGTQVTVSS
notes: as for B2
EC50 [8]: 170 nM

B11: BCMA-VHH18 (Fc fusion)
chain: PVQLVESGGGLVQAGGSLRLSCAASGRTFSSYAMGWFRQAPGKEREFVAGVSWTGDNTGYADSVKGRFTISRDNFKSTVYLEMNSLKPEDTAVYFCAAWNWGHHEYTYWGRGTQVTVSS
notes: as for B2
EC50 [8]: 1020 nM

B12: BCMA-VHH5 (Fc fusion)
chain: QVKLEESGGGLVQAGGSLRLSCAASGRTFSDYTVAWFRQAPGSEREFVAASVWTDGKPYYVDSVRGRFTISRDNAKNTVWLQMDSLQPDDTAVYYCQALTGGSWILDYWGQGTPVTVSS
notes: as for B2
EC50 [9]: 72.2 nM

B13: CD38-VHH9 (VHH)
VHH: QVQLVESGGGLVQAGGSLRLSCVASGFIYSISTMGWYRQAPGKQRELVATITSGGNTNYADSVKGRFTISRDNAQNTVYLQMNNLKPEDTAIYYCNTAWRETIVSRVWGQGTQVTVSS
EC50 [1]: 2.62 nM | EC50 [2]: 0.51 nM

B14: CD38-VHH12 (VHH)
VHH: QVQLVESGGGLVQAGGSLRLSCVASGIIFRIFSMGWYRQAPGKQRELVATITSGGNTNYAHSVKGRFTISRDDAKNTVNLQMNSLKPEDTAVYYCNVAIPSGIVDRSAWGQGTQVTVSS
EC50 [1]: 25.7 nM | EC50 [2]: 10.5 nM

B15: GPRC5D-VHH3 (VHH)
VHH: QVKLVESGGGLVQPGGSLRLSCVGSGIIFSASNLAWYRQALGKQRELVAGVTGGGSINYADSVKGRFTISRDNAKNTIYLQMNSLKPEDTAVYYCNARRSYSHWGQGTRVTVSS
EC50 [4]: 4.23 nM | EC50 [5]: 1.65 nM

B16: GPRC5D-VHH3-H9 (VHH)
VHH: B15 VHH with K3Q, V23A, G24A, L41P, K86R, P87A, R109L
notes: Humanized variant of GPRC5D-VHH3
EC50 [6]: 19.8 nM | EC50 [7]: 1.17 nM

B17: CD38-VHH4 (VHH)
VHH: QVQLVESGGGLVQPGGSLRLSCAASGFSLDYYHIGWFRQAPGKEREGISCISSSDGYTLYADSVKGRFTISRDNAKNTVYLQMNSLKPEDTAVYYCAASPRRLACAGSLYPPLSADFSSWGQGTQVTVSS
binding result [10]: binds

B18: GPRC5D-VHH1 (VHH)
VHH: SVQLVESEGGLVQAGGSLRLSCVASGRTVSSYAMGWFRQAPGKEREFVAAISWSGRSTYYADSMKGRFTISRDNAKNTVYLQMNNLRPEDTAVYYCATSRAVIPGRDWNYYEYSGQGTQVTVSS
EC50 [4]: 2.52 nM | EC50 [5]: 13.2 nM

B19: GPRC5D-VHH1-H7 (VHH)
VHH: B18 VHH with S1Q, E8G, A14P, V23A, A49S, V79L, N85S, P88A, S114W, Q119L
notes: Humanized variant of GPRC5D-VHH1
EC50 [6]: 4.44 nM

B20: BCMA-VHH22 (Fc fusion)
chain: HVQLVDSGGGLVQAGGSLRLSCAASGFTFDDYAMSWVRQAPGKGLEWVSAISWNGGSTYYAESMKGRFTISRDNTKNTLYLQMNSLKPEDSAVYYCVPVSHSDSVCGSPYMDYWGKGTLVTVSS
notes: as for B2
EC50 [9]: 49.2 nM

B21: CD38-VHH7 (VHH)
VHH: QVQLVESGGGLVHTGGSLRLSCAASGSISGLNTMGWYRQAPGKQRELVATIISGTMTRYADSVKGRFTISKDNAKNTVYLQMNSLKPEDTAVYYCTFKEITRDSRSYWGQGTQVTVSS
EC50 [1]: 3.55 nM | EC50 [2]: 1.91 nM
